In the Immune Epitope Database (IEDB):

Columns and labels:
Experiment in all cases: IEDB peptide-MHC binding, purified MHC/competitive/radioactivity; filed as Kd, often an IC50 or EC50 that approximates it; ≥ and ≤ were set here for values at or beyond the usual limits of such assays
HLA-A*03:01 = biological target: HLA-A*03:01
HLA-A*11:01 = biological target: HLA-A*11:01
HLA-A*31:01 = biological target: HLA-A*31:01
HLA-A*33:01 = biological target: HLA-A*33:01
HLA-A*68:01 = biological target: HLA-A*68:01
HLA-A*02:02 = biological target: HLA-A*02:02
HLA-A*02:03 = biological target: HLA-A*02:03
HLA-A*02:06 = biological target: HLA-A*02:06
[1] = source organism: Vaccinia virus WR
[2] = source organism: Vaccinia virus Copenhagen
[3] = source organism: Dengue virus 4 Philippines/H241/1956
[4] = source organism: SARS coronavirus Tor2
[5] = source organism: Mammarenavirus lassaense

VAEHRFENMK
Kd (HLA-A*03:01; [1]): 4870 nM | Kd (HLA-A*11:01; [1]): 788 nM | Kd (HLA-A*31:01; [1]): ≥ 34700 nM | Kd (HLA-A*33:01; [1]): ≥ 70000 nM | Kd (HLA-A*68:01; [1]): 5730 nM

FLPQIGGEA
Kd (HLA-A*02:02; [1]): 21.1 nM | Kd (HLA-A*02:03; [1]): 121 nM | Kd (HLA-A*02:06; [1]): 95.8 nM

CIRNASKFVY
Kd (HLA-A*03:01; [1]): 17500 nM | Kd (HLA-A*11:01; [1]): 19900 nM | Kd (HLA-A*31:01; [1]): ≥ 70000 nM | Kd (HLA-A*33:01; [1]): ≥ 70000 nM | Kd (HLA-A*68:01; [1]): ≥ 37000 nM

SIISLFYTFA
Kd (HLA-A*02:02; [1]): 111 nM | Kd (HLA-A*02:03; [1]): 28.1 nM | Kd (HLA-A*02:06; [1]): 93.6 nM

YTISSESLV
Kd (HLA-A*02:02; [1]): 522 nM | Kd (HLA-A*02:03; [1]): 37.6 nM | Kd (HLA-A*02:06; [1]): 53.6 nM

IVAMLLTHGA
Kd (HLA-A*02:02; [1]): 1160 nM | Kd (HLA-A*02:03; [1]): 153 nM | Kd (HLA-A*02:06; [1]): 82.2 nM

SLAIKNYYR
Kd (HLA-A*03:01; [2]): ≥ 43000 nM | Kd (HLA-A*11:01; [2]): 6060 nM | Kd (HLA-A*31:01; [2]): 3100 nM | Kd (HLA-A*33:01; [2]): ≥ 77700 nM | Kd (HLA-A*68:01; [2]): 6410 nM

LLVKMINHLK
Kd (HLA-A*03:01; [1]): 258 nM | Kd (HLA-A*11:01; [1]): 400 nM | Kd (HLA-A*31:01; [1]): 5420 nM | Kd (HLA-A*33:01; [1]): ≥ 67500 nM | Kd (HLA-A*68:01; [1]): 776 nM

VLTILYYGA
Kd (HLA-A*02:02; [1]): 1.32 nM | Kd (HLA-A*02:03; [1]): 17.5 nM | Kd (HLA-A*02:06; [1]): 6240 nM

KSIENKHQR
Kd (HLA-A*03:01; [1]): 12600 nM | Kd (HLA-A*11:01; [1]): 29.4 nM | Kd (HLA-A*31:01; [1]): 1.55 nM | Kd (HLA-A*33:01; [1]): 1080 nM | Kd (HLA-A*68:01; [1]): 100 nM

PAGRPNYVK
Kd (HLA-A*03:01; [1]): ≥ 31900 nM | Kd (HLA-A*11:01; [1]): 210 nM | Kd (HLA-A*31:01; [1]): 12 nM | Kd (HLA-A*33:01; [1]): 7210 nM | Kd (HLA-A*68:01; [1]): 15900 nM

NIVTDLENR
Kd (HLA-A*03:01; [1]): 9090 nM | Kd (HLA-A*11:01; [1]): 8740 nM | Kd (HLA-A*31:01; [1]): 1740 nM | Kd (HLA-A*33:01; [1]): 832 nM | Kd (HLA-A*68:01; [1]): 21.9 nM

DFRDYQSYR
Kd (HLA-A*03:01; [1]): ≥ 78000 nM | Kd (HLA-A*11:01; [1]): 13600 nM | Kd (HLA-A*31:01; [1]): 74.5 nM | Kd (HLA-A*33:01; [1]): 0.837 nM | Kd (HLA-A*68:01; [1]): 1020 nM

YVLGIFLRKL
Kd (HLA-A*02:06; [3]): 32.6 nM

LVYIFEPEK
Kd (HLA-A*03:01; [1]): 382 nM | Kd (HLA-A*11:01; [1]): 24.9 nM | Kd (HLA-A*31:01; [1]): ≥ 21100 nM | Kd (HLA-A*33:01; [1]): ≥ 77700 nM | Kd (HLA-A*68:01; [1]): 130 nM

LLFMILTVAA
Kd (HLA-A*02:03; source organism: Dengue virus 1 Brazil/97-11/1997): 468 nM

QIGEYTFEK
Kd (HLA-A*03:01; [4]): 48.7 nM | Kd (HLA-A*11:01; [4]): 9.93 nM | Kd (HLA-A*31:01; [4]): 1920 nM | Kd (HLA-A*33:01; [4]): ≥ 22200 nM | Kd (HLA-A*68:01; [4]): 589 nM

DILSIIDAK
Kd (HLA-A*03:01; [1]): 876 nM | Kd (HLA-A*11:01; [1]): 428 nM | Kd (HLA-A*31:01; [1]): ≥ 77900 nM | Kd (HLA-A*33:01; [1]): 896 nM | Kd (HLA-A*68:01; [1]): 49.7 nM

VLKAMHDKK
Kd (HLA-A*03:01; [1]): 263 nM | Kd (HLA-A*11:01; [1]): 364 nM | Kd (HLA-A*31:01; [1]): 126 nM | Kd (HLA-A*33:01; [1]): 977 nM | Kd (HLA-A*68:01; [1]): 3420 nM

VTPEYIKDLK
Kd (HLA-A*03:01; [1]): 14300 nM | Kd (HLA-A*11:01; [1]): 522 nM | Kd (HLA-A*31:01; [1]): 15100 nM | Kd (HLA-A*33:01; [1]): ≥ 70000 nM | Kd (HLA-A*68:01; [1]): 374 nM

AVTLNRIKIA
Kd (HLA-A*02:02; [1]): 1720 nM | Kd (HLA-A*02:03; [1]): 1290 nM | Kd (HLA-A*02:06; [1]): 2290 nM

RAGYSIVEL
Kd (HLA-A*02:02; [1]): 4940 nM | Kd (HLA-A*02:03; [1]): 5390 nM | Kd (HLA-A*02:06; [1]): 5070 nM

IIAVFDSKLI
Kd (HLA-A*02:02; [1]): 758 nM | Kd (HLA-A*02:03; [1]): 595 nM | Kd (HLA-A*02:06; [1]): 8510 nM

ILEYLYIMR
Kd (HLA-A*03:01; [1]): 1570 nM | Kd (HLA-A*11:01; [1]): 1090 nM | Kd (HLA-A*31:01; [1]): 97.6 nM | Kd (HLA-A*33:01; [1]): 426 nM | Kd (HLA-A*68:01; [1]): 303 nM

SIGFEARIV
Kd (HLA-A*02:02; [1]): 10100 nM | Kd (HLA-A*02:03; [1]): 575 nM | Kd (HLA-A*02:06; [1]): 1310 nM

LLFLVLIMLI
Kd (HLA-A*02:02; [4]): 447 nM | Kd (HLA-A*02:03; [4]): 3150 nM | Kd (HLA-A*02:06; [4]): 8300 nM

ITGNKVKTEL
Kd (HLA-A*02:02; [1]): ≥ 70000 nM | Kd (HLA-A*02:03; [1]): ≥ 70400 nM | Kd (HLA-A*02:06; [1]): ≥ 69800 nM

GVRVRVAVNK
Kd (HLA-A*03:01; [1]): 52.2 nM | Kd (HLA-A*11:01; [1]): 840 nM | Kd (HLA-A*31:01; [1]): 12100 nM | Kd (HLA-A*33:01; [1]): ≥ 70000 nM | Kd (HLA-A*68:01; [1]): 2190 nM

EIARIENEMK
Kd (HLA-A*03:01; [1]): 5610 nM | Kd (HLA-A*11:01; [1]): 3630 nM | Kd (HLA-A*31:01; [1]): ≥ 70000 nM | Kd (HLA-A*33:01; [1]): 7050 nM | Kd (HLA-A*68:01; [1]): 7.11 nM

WQIEKASLI
Kd (HLA-A*02:06; [3]): 43.5 nM

ISAEKTPIR
Kd (HLA-A*03:01; [1]): ≥ 78000 nM | Kd (HLA-A*11:01; [1]): 6020 nM | Kd (HLA-A*31:01; [1]): ≥ 41700 nM | Kd (HLA-A*33:01; [1]): ≥ 77700 nM | Kd (HLA-A*68:01; [1]): 275 nM

ILNFLDWIK
Kd (HLA-A*03:01; [2]): 189 nM | Kd (HLA-A*11:01; [2]): 155 nM | Kd (HLA-A*31:01; [2]): 427 nM | Kd (HLA-A*33:01; [2]): 1290 nM | Kd (HLA-A*68:01; [2]): 158 nM

GIDTSNNIA
Kd (HLA-A*02:02; [1]): ≥ 49700 nM | Kd (HLA-A*02:03; [1]): ≥ 71400 nM | Kd (HLA-A*02:06; [1]): ≥ 25200 nM

NMWREILSNT
Kd (HLA-A*02:02; [1]): 6060 nM | Kd (HLA-A*02:03; [1]): 56.1 nM | Kd (HLA-A*02:06; [1]): 12000 nM

NIQKITVFNK
Kd (HLA-A*03:01; [1]): 47.4 nM | Kd (HLA-A*11:01; [1]): 5.8 nM | Kd (HLA-A*31:01; [1]): 3.89 nM | Kd (HLA-A*33:01; [1]): 1200 nM | Kd (HLA-A*68:01; [1]): 30.5 nM

DIFMRDWNSK
Kd (HLA-A*03:01; [1]): ≥ 70100 nM | Kd (HLA-A*11:01; [1]): 4230 nM | Kd (HLA-A*31:01; [1]): 12400 nM | Kd (HLA-A*33:01; [1]): 548 nM | Kd (HLA-A*68:01; [1]): 74.2 nM

ILAALFMYY
Kd (HLA-A*03:01; [1]): 0.175 nM | Kd (HLA-A*11:01; [1]): 0.309 nM | Kd (HLA-A*31:01; [1]): 6400 nM | Kd (HLA-A*33:01; [1]): 16000 nM | Kd (HLA-A*68:01; [1]): 36.3 nM

GFNTLKPIFK
Kd (HLA-A*03:01; [4]): 140 nM | Kd (HLA-A*11:01; [4]): 105 nM | Kd (HLA-A*31:01; [4]): 1830 nM | Kd (HLA-A*33:01; [4]): 19600 nM | Kd (HLA-A*68:01; [4]): 1960 nM

ENAVWDQCK
Kd (HLA-A*03:01; [5]): ≥ 78000 nM | Kd (HLA-A*11:01; [5]): ≥ 77900 nM | Kd (HLA-A*31:01; [5]): ≥ 77900 nM | Kd (HLA-A*33:01; [5]): ≥ 38000 nM | Kd (HLA-A*68:01; [5]): 1480 nM
